According to IntAct's records for PubMed 16628218:

B1: Beta-chimaerin (Homo sapiens), P52757 (parent)
chain: MAASSNSSLSGSSVSSDAEEYQPPIWKSYLYQLQQEAPRPKRIICPREVENRPKYYGREFHGIISREQADELLGGVEGAYILRESQRQPGCYTLALRFGNQTLNYRLFHDGKHFVGEKRFESIHDLVTDGLITLYIETKAAEYISKMTTNPIYEHIGYATLLREKVSRRLSRSKNEPRKTNVTHEEHTAVEKISSLVRRAALTHNDNHFNYEKTHNFKVHTFRGPHWCEYCANFMWGLIAQGVRCSDCGLNVHKQCSKHVPNDCQPDLKRIKKVYCCDLTTLVKAHNTQRPMVVDICIREIEARGLKSEGLYRVSGFTEHIEDVKMAFDRDGEKADISANVYPDINIITGALKLYFRDLPIPVITYDTYSKFIDAAKISNADERLEAVHEVLMLLPPAHYETLRYLMIHLKKVTMNEKDNFMNAENLGIVFGPTLMRPPEDSTLTTLHDMRYQKLIVQILIENEDVLF

Variants of: B1
Details: with rac1_human RAC1, P63000

Variant	effect of a mutation on the interaction
MAASSNSSLSGSSVSSDAEEYQPPIWKSYLYALQQEAPRPKRIICPREVENRPKYYGREFHGIISREQADELLGGVEGAYILRESQRQPGCYTLALRFGNQTLNYRLFHDGKHFVGEKRFESIHDLVTDGLITLYIETKAAEYISKMTTNPIYEHIGYATLLREKVSRRLSRSKNEPRKTNVTHEEHTAVEKISSLVRRAALTHNDNHFNYEKTHNFKVHTFRGPHWCEYCANFMWGLIAQGVRCSDCGLNVHKQCSKHVPNDCQPDLKRIKKVYCCDLTTLVKAHNTQRPMVVDICIREIEARGLKSEGLYRVSGFTEHIEDVKMAFDRDGEKADISANVYPDINIITGALKLYFRDLPIPVITYDTYSKFIDAAKISNADERLEAVHEVLMLLPPAHYETLRYLMIHLKKVTMNEKDNFMNAENLGIVFGPTLMRPPEDSTLTTLHDMRYQKLIVQILIENEDVLF [Q32A]	increasing interaction
MAASSNSSLSGSSVSSDAEEYQPPIWKSYLYQLQQEAPRPKRIICPREVENRPKYYGREFHGIISREQADELLGGVEGAYILRESQRQPGCYTLALRFGNQTLNYRLFHDGKHFVGEKRFESIHDLVTDGLITLYIETKAAEYISKMTTNPIYEHIGYATLLREKVSRRLSRSKNEPRKTNVTHEEHTAVEKISSLVRRAALTHNDNHFNYEKTHNFKVHTFRGPHWCEYCANFMWGLIAQGVRCSDCGLNVHKQCSKHVPNDAQPDLKRIKKVYCCDLTTLVKAHNTQRPMVVDICIREIEARGLKSEGLYRVSGFTEHIEDVKMAFDRDGEKADISANVYPDINIITGALKLYFRDLPIPVITYDTYSKFIDAAKISNADERLEAVHEVLMLLPPAHYETLRYLMIHLKKVTMNEKDNFMNAENLGIVFGPTLMRPPEDSTLTTLHDMRYQKLIVQILIENEDVLF [C264A]	disrupting interaction
